Reference: patent publication US20200199213A1 (Eli Lilly, published 2020)

B1: anti-ANGPTL3/8 complex Ab having a LC of SEQ ID NO:5 and a HC of SEQ ID NO:6 (antibody, human IgG4 S228P, kappa, F234A L235A, V domains shown)
VH: QVTLKESGPTLVKPTQTLTLTCTFSGFSLSISGVGVGWIRQPPGKALEWLALIYRNDDKRYSPSLKSRLTITKDTSKNQVVLTLTNMDPVDTATYYCARTYSSGWYGNWFDPWGQGTLVTVSS
VL: DIVMTQTPLSLPVTPGEPASISCRSSQSLLDSDDGNTYLDWYLQKPGQSPQLLIYMLSYRASGVPDRFSGSGSGTDFTLKISRVEAEDVGIYYCMQRIEFPLTFGGGTKVEIKR
notes: In the ELISA assays tested as IgG from CHO supernatants; also called the Ab
B2: Ab with LC variant having a E99Q mutation (SEQ ID NO:25) and a HC of SEQ ID NO:6 (antibody, human IgG4 S228P, kappa, F234A L235A, V domains shown)
VH: QVTLKESGPTLVKPTQTLTLTCTFSGFSLSISGVGVGWIRQPPGKALEWLALIYRNDDKRYSPSLKSRLTITKDTSKNQVVLTLTNMDPVDTATYYCARTYSSGWYGNWFDPWGQGTLVTVSS
VL: DIVMTQTPLSLPVTPGEPASISCRSSQSLLDSDDGNTYLDWYLQKPGQSPQLLIYMLSYRASGVPDRFSGSGSGTDFTLKISRVEAEDVGIYYCMQRIQFPLTFGGGTKVEIKR
notes: also called E99Q Variant Ab; E99Q Ab
B3: Ab with LC variant having a D31S mutation (SEQ ID NO:21) and a HC of SEQ ID NO:6 (antibody, human IgG4 S228P, kappa, F234A L235A, V domains shown)
VH: QVTLKESGPTLVKPTQTLTLTCTFSGFSLSISGVGVGWIRQPPGKALEWLALIYRNDDKRYSPSLKSRLTITKDTSKNQVVLTLTNMDPVDTATYYCARTYSSGWYGNWFDPWGQGTLVTVSS
VL: DIVMTQTPLSLPVTPGEPASISCRSSQSLLSSDDGNTYLDWYLQKPGQSPQLLIYMLSYRASGVPDRFSGSGSGTDFTLKISRVEAEDVGIYYCMQRIEFPLTFGGGTKVEIKR
notes: also called D31S Variant Ab; D31S Ab
B4: Ab with LC variant having a D33A mutation (SEQ ID NO:22) and a HC of SEQ ID NO:6 (antibody, human IgG4 S228P, kappa, F234A L235A, V domains shown)
VH: QVTLKESGPTLVKPTQTLTLTCTFSGFSLSISGVGVGWIRQPPGKALEWLALIYRNDDKRYSPSLKSRLTITKDTSKNQVVLTLTNMDPVDTATYYCARTYSSGWYGNWFDPWGQGTLVTVSS
VL: DIVMTQTPLSLPVTPGEPASISCRSSQSLLDSADGNTYLDWYLQKPGQSPQLLIYMLSYRASGVPDRFSGSGSGTDFTLKISRVEAEDVGIYYCMQRIEFPLTFGGGTKVEIKR
notes: also called D33A Variant Ab; D33A Ab

What was measured:
human ANGPTL8 [1] = target: T1, human ANGPTL8 (human, UniProt Q6UXH0 22-198); test: single point ELISA
T1 construct: Biotinylated in the ELISA assays; also called hANGPTL8; free ANGPTL8
T1 sequence: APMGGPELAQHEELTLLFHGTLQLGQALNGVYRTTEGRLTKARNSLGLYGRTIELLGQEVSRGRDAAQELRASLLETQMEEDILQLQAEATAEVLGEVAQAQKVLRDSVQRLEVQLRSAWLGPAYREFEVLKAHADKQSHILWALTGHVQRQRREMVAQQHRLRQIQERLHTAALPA
Description: (§1) Single Point ELISA (SPE) Assay: Ab binding selectivity to either the ANGPTL3/8 complex, free ANGPTL3 or free ANGPTL8 is initially verified using standard ELISA assays in a single point format. […] IgG secreted into supernatants after expression in CHO cells are then captured to the assay plate. Biotinylated antigen is added at a concentration of 25 nM to allow for Ab/antigen binding. Ab/antigen complexes are detected after adding alkaline phosphatase-conjugated neutravidin and alkaline phosphatase substrate, and subsequent measurement of the optical density at 560 nm. Positive binding is determined by a signal greater than 3 fold over the non-binding background signal.

human ANGPTL3 [2] = target: T2, human ANGPTL3 (human, UniProt Q9Y5C1 17-460); test: single point ELISA
T2 construct: Biotinylated in the ELISA assays; also called hANGPTL3; free ANGPTL3
T2 sequence: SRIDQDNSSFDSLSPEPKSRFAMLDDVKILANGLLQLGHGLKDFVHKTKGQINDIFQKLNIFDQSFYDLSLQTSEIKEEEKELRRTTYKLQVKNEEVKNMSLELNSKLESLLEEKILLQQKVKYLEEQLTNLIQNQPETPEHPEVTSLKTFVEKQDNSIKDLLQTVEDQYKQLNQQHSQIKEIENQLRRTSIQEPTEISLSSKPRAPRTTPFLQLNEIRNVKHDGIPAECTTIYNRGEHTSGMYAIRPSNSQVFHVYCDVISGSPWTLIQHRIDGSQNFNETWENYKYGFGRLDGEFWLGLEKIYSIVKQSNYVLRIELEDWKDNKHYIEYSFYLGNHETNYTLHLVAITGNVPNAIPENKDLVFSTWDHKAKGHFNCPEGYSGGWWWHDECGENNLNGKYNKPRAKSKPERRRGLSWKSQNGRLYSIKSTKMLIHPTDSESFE
Description: as §1

human ANGPTL3/8 complex [3] = target: T3, human ANGPTL3/8 complex (human, UniProt Q9Y5C1 17-460; Q6UXH0 22-198, limits assumed); test: ELISA; Ab captured by anti-human Fc; biotinylated antigen at 33.3 nM
T3 construct: also called hANGPTL3/8 complex; ANGTPL3/8 complex
T3 sequence 1: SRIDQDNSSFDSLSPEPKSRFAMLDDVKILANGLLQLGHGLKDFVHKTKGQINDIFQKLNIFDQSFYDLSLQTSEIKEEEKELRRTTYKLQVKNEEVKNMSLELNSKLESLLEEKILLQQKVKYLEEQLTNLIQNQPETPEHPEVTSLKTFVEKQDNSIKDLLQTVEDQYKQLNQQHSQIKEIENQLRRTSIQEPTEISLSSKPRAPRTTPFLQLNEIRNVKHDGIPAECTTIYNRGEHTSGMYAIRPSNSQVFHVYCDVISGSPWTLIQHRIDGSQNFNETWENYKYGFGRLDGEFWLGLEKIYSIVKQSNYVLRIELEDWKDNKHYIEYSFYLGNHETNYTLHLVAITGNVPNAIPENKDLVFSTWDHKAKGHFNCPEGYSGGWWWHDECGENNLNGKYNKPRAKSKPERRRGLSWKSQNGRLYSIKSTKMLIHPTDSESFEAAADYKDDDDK
T3 sequence 2: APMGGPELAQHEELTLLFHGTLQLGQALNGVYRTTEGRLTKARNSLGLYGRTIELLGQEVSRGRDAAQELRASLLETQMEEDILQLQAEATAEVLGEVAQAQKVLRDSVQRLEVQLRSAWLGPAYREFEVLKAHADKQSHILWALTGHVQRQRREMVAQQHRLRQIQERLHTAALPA
Description: (§2) ELISA Assay: Ab binding selectivity to either the ANGPTL3/8 complex, free ANGPTL3 or free ANGPTL8 is verified using standard ELISA assays. […] Ab from CHO supernatants after expression in CHO cells is then captured to the assay plate and results is an Ab concentration of 2 μg/ml. Biotinylated antigen (ANGPTL3, ANGPTL8 or ANGPTL3/8 complex) is added at varying concentrations by serial dilution to allow for Ab/antigen binding. Ab/antigen complexes are detected after the addition of alkaline phosphatase-conjugated neutravidin, and alkaline phosphatase substrate, and subsequent measurement of the optical density at 560 nm.

human ANGPTL8 [4] = target: T1, human ANGPTL8; test: as above
Description: as §2

human ANGPTL3 [5] = target: T2, human ANGPTL3; test: as above
Description: as §2

human ANGPTL3/8 complex [6] = target: T3, human ANGPTL3/8 complex; test: single point ELISA; IgG captured by anti-human Fc; biotinylated antigen at 25 nM
Description: as §1

human ANGPTL3 [7] = target: T2, human ANGPTL3; test: as above
Description: as §1

human ANGPTL8 [8] = target: T1, human ANGPTL8; test: ELISA, antigen titration
Description: as §2

human ANGPTL3 [9] = target: T2, human ANGPTL3; test: ELISA, antigen titration
Description: as §2

Binder | binding result (human ANGPTL8 [1]) | binding result (human ANGPTL3 [2]) | OD at 560 nm (human ANGPTL3/8 complex [3]) [OD 560 nm] | OD at 560 nm (human ANGPTL8 [4]) [OD 560 nm] | OD at 560 nm (human ANGPTL3 [5]) [OD 560 nm] | OD at 560 nm (human ANGPTL3/8 complex [6]) [OD 560 nm] | OD at 560 nm (human ANGPTL3 [7]) [OD 560 nm] | binding result (human ANGPTL8 [8]) | binding result (human ANGPTL3 [9])
B1 | no binding | no binding | 2.41 | 0.05 | 0.052 | 2.3 | 0.074 |  | 
B2 | no binding | no binding | 2.23 | 0.063 | 0.069 | 1.54 | 0.083 |  | 
B3 |  |  | 2.23 | 0.063 | 0.069 | 0.928 | 0.058 | no binding (tested: 100 nM antigen) | no binding (tested: 100 nM antigen)
B4 |  |  | 2.18 | 0.049 | 0.067 | 0.898 | 0.076 | no binding (tested: 100 nM antigen) | no binding (tested: 100 nM antigen)
